Legend:
[1] = molecular target: NMDA; assay: radioligand displacement, compound at 10 µM
[2] = molecular target: MAO-A; assay: radioligand displacement, compound at 10 µM
[3] = molecular target: KV channel; assay: radioligand displacement, compound at 10 µM
[4] = molecular target: Na+ channel (site 2); assay: radioligand displacement, compound at 10 µM
[5] = molecular target: Ca2+ channel (L, dihydropyridine site); assay: radioligand displacement, compound at 10 µM
[6] = molecular target: BZD (central); assay: radioligand displacement, compound at 10 µM
[7] = molecular target: Ubiquitin carboxyl-terminal hydrolase 14 (Homo sapiens (Human)) (UniProt P54578)
[8] = molecular target: Ubiquitin carboxy-terminal hydrolase L1 (Homo sapiens (Human)) (UniProt P09936)
[9] = molecular target: Ubiquitin carboxyl-terminal hydrolase 5 (Homo sapiens (Human)) (UniProt P45974)
Ubiquitin carboxyl-terminal hydrolase 5 (Homo sapiens (Human)), sequence (P45974 whole entry): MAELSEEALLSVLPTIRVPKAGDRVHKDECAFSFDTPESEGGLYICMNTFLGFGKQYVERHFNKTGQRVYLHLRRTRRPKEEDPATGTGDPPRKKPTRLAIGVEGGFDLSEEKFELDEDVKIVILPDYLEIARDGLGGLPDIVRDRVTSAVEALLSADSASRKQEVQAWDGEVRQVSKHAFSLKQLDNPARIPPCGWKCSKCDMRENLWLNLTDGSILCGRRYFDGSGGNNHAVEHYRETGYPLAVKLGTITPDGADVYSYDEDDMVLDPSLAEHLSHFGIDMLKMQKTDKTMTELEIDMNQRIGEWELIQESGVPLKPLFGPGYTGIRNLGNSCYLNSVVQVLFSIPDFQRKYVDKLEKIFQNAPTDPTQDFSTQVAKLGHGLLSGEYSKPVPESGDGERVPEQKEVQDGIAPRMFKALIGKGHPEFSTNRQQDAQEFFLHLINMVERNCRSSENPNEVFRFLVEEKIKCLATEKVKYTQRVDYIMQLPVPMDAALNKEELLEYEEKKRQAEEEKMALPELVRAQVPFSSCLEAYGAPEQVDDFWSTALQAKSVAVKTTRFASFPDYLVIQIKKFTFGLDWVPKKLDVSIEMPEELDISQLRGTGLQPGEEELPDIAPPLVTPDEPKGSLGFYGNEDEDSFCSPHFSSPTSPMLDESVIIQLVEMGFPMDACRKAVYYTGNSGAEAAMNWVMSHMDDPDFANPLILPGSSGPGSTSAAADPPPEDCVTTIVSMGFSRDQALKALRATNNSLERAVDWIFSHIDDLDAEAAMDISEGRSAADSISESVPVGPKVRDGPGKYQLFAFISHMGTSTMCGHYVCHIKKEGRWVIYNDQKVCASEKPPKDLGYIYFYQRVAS

[10] = molecular target: Caspase-9 (Homo sapiens (Human)) (UniProt P55211)
Caspase-9 (Homo sapiens (Human)), sequence (P55211 whole entry): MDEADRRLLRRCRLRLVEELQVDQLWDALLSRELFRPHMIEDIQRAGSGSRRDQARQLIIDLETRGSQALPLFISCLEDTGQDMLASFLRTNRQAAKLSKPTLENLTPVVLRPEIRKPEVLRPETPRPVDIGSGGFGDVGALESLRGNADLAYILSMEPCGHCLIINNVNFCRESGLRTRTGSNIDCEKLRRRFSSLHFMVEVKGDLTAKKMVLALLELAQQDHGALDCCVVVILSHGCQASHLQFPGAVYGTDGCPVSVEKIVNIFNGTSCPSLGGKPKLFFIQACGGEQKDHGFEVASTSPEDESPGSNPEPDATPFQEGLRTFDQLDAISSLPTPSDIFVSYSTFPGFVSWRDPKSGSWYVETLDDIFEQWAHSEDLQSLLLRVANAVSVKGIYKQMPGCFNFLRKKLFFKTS

[11] = molecular target: Matrix metalloprotease 9 (mutant Q279R) (Homo sapiens (Human)) (UniProt P14780)
[12] = molecular target: Matrix metalloprotease 2 (Homo sapiens (Human)) (UniProt P08253)
Matrix metalloprotease 2 (Homo sapiens (Human)), sequence (P08253 110-660): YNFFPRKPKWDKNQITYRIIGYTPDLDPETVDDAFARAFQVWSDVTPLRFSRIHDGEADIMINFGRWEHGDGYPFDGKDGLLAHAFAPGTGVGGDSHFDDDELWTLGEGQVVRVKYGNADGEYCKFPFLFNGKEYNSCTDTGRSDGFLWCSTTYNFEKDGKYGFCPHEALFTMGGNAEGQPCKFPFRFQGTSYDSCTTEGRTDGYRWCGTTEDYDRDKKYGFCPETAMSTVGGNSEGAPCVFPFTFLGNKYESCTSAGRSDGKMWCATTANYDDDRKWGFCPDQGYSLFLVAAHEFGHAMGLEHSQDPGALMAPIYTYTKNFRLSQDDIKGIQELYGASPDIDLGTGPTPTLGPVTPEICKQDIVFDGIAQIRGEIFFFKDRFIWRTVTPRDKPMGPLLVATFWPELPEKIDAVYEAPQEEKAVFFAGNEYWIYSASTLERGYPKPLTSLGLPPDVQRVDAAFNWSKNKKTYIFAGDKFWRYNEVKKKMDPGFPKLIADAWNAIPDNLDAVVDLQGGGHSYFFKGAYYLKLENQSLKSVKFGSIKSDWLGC

[13] = molecular target: Cathepsin L (Homo sapiens (Human)) (UniProt P07711)
[14] = molecular target: Ataxin3 (Homo sapiens (Human)) (UniProt P54252)
Ataxin3 (Homo sapiens (Human)), sequence (P54252 whole entry): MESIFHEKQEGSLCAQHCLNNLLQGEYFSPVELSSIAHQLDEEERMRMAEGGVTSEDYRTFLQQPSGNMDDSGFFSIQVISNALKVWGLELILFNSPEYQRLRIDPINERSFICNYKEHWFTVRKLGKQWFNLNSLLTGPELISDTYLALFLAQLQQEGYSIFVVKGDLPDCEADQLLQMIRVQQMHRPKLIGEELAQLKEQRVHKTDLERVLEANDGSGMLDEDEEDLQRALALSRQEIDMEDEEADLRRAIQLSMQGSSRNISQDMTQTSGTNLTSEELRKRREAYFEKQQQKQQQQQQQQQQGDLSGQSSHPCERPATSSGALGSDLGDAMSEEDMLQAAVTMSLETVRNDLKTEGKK

[15] = molecular target: serine protease NS3 (a.a. 3-181) from Hepatitis C virus genotype 1a (mutant D168V) (Hepatitis C virus genotype 1a)
[16] = molecular target: serine protease NS3 (a.a. 3-181) from Hepatitis C virus genotype 1b (Hepatitis C virus genotype 1b)
[17] = molecular target: Cathepsin S (Homo sapiens (Human)) (UniProt P25774)
[18] = molecular target: Ubiquitin carboxyl-terminal hydrolase 10 (Homo sapiens (Human)) (UniProt Q14694)
Ubiquitin carboxyl-terminal hydrolase 10 (Homo sapiens (Human)), sequence (Q14694 whole entry): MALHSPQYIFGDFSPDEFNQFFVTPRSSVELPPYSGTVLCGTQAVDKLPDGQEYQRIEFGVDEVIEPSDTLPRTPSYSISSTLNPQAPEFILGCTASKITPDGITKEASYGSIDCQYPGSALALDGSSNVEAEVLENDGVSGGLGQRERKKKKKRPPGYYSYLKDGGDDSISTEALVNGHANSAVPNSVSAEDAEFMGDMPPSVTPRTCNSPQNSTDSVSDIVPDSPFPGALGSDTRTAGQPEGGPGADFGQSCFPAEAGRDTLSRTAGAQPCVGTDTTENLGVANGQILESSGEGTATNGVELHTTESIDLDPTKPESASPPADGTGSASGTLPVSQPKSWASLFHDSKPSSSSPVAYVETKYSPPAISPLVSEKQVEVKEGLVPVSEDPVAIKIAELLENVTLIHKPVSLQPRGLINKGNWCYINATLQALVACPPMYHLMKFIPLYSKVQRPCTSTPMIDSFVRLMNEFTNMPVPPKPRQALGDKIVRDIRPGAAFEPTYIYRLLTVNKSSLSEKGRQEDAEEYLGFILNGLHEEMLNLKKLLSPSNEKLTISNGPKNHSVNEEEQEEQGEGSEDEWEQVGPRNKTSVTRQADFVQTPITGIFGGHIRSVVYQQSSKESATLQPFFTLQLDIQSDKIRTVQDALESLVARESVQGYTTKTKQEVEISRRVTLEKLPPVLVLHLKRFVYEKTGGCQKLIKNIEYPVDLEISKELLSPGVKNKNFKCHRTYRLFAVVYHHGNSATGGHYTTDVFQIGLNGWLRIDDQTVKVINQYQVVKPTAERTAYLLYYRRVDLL

[19] = molecular target: T1, Cathepsin F (Homo sapiens (Human)) (UniProt Q9UBX1)
T1 sequence: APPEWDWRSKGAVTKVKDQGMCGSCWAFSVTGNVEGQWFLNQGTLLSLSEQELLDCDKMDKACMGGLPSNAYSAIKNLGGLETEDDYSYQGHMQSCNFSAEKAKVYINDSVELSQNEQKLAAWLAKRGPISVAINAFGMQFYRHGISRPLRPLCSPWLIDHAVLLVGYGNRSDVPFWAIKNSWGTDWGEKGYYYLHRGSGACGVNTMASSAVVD

[20] = molecular target: T2, Caspase-6 (Homo sapiens (Human)) (UniProt P55212)
T2 sequence: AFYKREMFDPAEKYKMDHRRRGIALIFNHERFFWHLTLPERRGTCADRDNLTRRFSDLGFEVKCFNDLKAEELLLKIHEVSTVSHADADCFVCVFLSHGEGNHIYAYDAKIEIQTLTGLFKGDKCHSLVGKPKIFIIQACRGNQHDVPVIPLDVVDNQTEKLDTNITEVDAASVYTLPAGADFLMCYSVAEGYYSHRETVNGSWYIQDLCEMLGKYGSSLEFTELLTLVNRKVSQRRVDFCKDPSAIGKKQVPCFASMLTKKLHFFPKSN

[21] = molecular target: T3, Ubiquitin carboxyl-terminal hydrolase 2 (Homo sapiens (Human)) (UniProt O75604)
T3 sequence: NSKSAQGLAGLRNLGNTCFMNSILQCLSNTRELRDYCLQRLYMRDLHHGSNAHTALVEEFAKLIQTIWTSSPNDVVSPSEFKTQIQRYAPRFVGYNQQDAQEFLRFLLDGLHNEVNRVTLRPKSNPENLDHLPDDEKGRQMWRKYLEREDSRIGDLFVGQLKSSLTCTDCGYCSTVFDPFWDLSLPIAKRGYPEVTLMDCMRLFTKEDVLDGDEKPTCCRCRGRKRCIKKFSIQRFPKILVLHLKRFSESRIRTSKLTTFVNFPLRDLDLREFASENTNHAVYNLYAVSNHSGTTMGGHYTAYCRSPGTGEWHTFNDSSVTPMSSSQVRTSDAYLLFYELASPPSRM

[22] = molecular target: DPP8 (Homo sapiens (Human)) (UniProt Q6V1X1)
[23] = molecular target: T4, Ubiquitin carboxy-terminal hydrolase L3 (Homo sapiens (Human)) (UniProt P15374)
T4 sequence: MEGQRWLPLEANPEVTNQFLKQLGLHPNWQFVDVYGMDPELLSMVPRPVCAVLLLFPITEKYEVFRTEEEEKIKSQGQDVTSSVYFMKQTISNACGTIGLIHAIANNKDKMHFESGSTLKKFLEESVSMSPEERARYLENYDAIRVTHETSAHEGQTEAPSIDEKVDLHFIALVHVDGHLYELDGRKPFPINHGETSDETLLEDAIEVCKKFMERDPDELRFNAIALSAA

[24] = molecular target: T5, Deubiquitinase OTUD6B (Homo sapiens (Human)) (UniProt Q8N6M0)
T5 sequence: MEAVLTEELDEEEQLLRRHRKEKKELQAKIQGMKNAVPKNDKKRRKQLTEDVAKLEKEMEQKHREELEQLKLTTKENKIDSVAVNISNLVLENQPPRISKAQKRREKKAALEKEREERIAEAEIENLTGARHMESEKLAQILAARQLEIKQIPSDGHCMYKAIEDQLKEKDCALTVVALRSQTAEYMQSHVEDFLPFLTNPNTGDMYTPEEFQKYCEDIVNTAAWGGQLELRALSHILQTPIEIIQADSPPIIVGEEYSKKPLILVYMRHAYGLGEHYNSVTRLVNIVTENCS

[25] = molecular target: Cathepsin B (Homo sapiens (Human)) (UniProt P07858)
[26] = molecular target: DPP7 (Homo sapiens (Human)) (UniProt Q9UHL4)
[27] = molecular target: serine protease NS3 (a.a. 3-181) from Hepatitis C virus genotype 1b (mutant D168V) (Hepatitis C virus genotype 1b)

Row | Substance | % Inhibition of Specific Binding [1] [%] | % Inhibition of Specific Binding [2] [%] | % Inhibition of Specific Binding [3] [%] | % Inhibition of Specific Binding [4] [%] | % Inhibition of Specific Binding [5] [%] | % Inhibition of Specific Binding [6] [%] | Percentage inhibition (%) (% inhibition at 10 µM) [7] | Percentage inhibition (%) (% inhibition at 10 µM) [8] | Percentage inhibition (%) (% inhibition at 10 µM) [9] | Percentage inhibition (%) (% inhibition at 10 µM) [10] | Percentage inhibition (%) (% inhibition at 10 µM) [11] | Percentage inhibition (%) (% inhibition at 10 µM) [12] | Percentage inhibition (%) (% inhibition at 10 µM) [13] | Percentage inhibition (%) (% inhibition at 10 µM) [14] | Percentage inhibition (%) (% inhibition at 10 µM) [15] | Percentage inhibition (%) (% inhibition at 10 µM) [16] | Percentage inhibition (%) (% inhibition at 10 µM) [17] | Percentage inhibition (%) (% inhibition at 10 µM) [18] | Percentage inhibition (%) (% inhibition at 10 µM) [19] | Percentage inhibition (%) (% inhibition at 10 µM) [20] | other results
1 | Hex-[Cys(tMeBn(DOTA-AET))-Pro-Pro-Thr-Gln-Phe-Cys]-OH (3BP-3554) (peptide) | 1 | -25 | 4 | 14 | 54 | 5 | 2 | 4 | -2 | -2 | 2 | -2 | -6 | -1 | -372 | -9 | -23 | -1 | -25 | -3 | Percentage inhibition (%) (% inhibition at 10 µM) [21]: -1; Percentage inhibition (%) (% inhibition at 10 µM) [22]: 11; Percentage inhibition (%) (% inhibition at 10 µM) [23]: 0; Percentage inhibition (%) (% inhibition at 10 µM) [24]: 0; Percentage inhibition (%) (% inhibition at 10 µM) [25]: 2; Percentage inhibition (%) (% inhibition at 10 µM) [26]: -7; Percentage inhibition (%) (% inhibition at 10 µM) [27]: -17
2 | Hex-[Cys(tMeBn(DOTA-PP))-Pro-Pro-Thr-Gln-Phe-Cys]-Asp-NH2 (3BP-3407) (peptide) | 9 | -5 | -5 | -7 | 42 | -9 | 5 | 4 | 46 | 8 | 2 | 3 | 6 | 10 | -68 | 5 | 18 | 5 | -24 | -1 | Percentage inhibition (%) (% inhibition at 10 µM) [21]: 7; Percentage inhibition (%) (% inhibition at 10 µM) [22]: 5; Percentage inhibition (%) (% inhibition at 10 µM) [23]: 14; Percentage inhibition (%) (% inhibition at 10 µM) [24]: 15; Percentage inhibition (%) (% inhibition at 10 µM) [25]: 36; Percentage inhibition (%) (% inhibition at 10 µM) [26]: -3; Percentage inhibition (%) (% inhibition at 10 µM) [27]: -6
